Results taken from IntAct's records for PubMed 7651520.

These substances were tested against ste20_yeast STE20 (UniProt Q03497).
ste20_yeast STE20, sequence (Q03497 whole entry): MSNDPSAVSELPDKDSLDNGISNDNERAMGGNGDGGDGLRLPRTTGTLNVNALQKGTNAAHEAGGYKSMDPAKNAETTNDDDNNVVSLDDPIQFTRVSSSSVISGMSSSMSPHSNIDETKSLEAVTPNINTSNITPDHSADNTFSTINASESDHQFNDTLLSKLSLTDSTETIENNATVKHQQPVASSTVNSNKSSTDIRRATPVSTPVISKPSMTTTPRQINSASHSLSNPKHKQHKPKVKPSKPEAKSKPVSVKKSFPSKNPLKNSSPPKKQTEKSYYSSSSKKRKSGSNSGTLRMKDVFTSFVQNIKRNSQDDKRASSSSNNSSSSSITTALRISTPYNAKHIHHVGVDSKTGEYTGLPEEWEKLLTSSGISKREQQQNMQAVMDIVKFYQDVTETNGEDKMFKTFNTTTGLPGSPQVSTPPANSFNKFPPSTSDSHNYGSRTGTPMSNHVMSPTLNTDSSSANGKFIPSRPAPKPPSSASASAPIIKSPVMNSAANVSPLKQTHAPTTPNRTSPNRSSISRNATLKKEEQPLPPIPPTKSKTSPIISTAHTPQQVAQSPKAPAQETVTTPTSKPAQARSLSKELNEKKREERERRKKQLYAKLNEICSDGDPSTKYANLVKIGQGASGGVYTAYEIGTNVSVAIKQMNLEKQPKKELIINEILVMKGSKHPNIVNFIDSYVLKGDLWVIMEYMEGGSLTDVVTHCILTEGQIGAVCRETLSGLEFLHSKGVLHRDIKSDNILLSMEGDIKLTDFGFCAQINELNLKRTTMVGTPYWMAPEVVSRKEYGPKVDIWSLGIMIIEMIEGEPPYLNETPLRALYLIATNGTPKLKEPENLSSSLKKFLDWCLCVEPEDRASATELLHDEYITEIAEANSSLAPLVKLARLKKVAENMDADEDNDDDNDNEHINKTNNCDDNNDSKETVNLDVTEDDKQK

Cell division control protein 42 (Saccharomyces cerevisiae), P19073 G12V;C188S, sequence (P19073 whole entry G12V/C188S): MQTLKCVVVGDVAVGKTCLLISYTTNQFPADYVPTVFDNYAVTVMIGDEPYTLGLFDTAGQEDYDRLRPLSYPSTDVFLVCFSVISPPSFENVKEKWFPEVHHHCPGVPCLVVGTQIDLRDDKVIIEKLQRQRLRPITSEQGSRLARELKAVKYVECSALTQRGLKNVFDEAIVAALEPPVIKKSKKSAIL
Cell division control protein 42 (Saccharomyces cerevisiae), P19073 C188S, sequence (P19073 whole entry C188S): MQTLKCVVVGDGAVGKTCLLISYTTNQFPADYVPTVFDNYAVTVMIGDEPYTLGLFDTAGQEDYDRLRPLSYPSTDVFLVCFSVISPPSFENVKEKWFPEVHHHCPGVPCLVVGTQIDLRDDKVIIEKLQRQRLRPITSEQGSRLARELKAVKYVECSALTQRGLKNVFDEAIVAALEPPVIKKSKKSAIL
Cell division control protein 42 (Saccharomyces cerevisiae), P19073 Q61L;C188S, sequence (P19073 whole entry Q61L/C188S): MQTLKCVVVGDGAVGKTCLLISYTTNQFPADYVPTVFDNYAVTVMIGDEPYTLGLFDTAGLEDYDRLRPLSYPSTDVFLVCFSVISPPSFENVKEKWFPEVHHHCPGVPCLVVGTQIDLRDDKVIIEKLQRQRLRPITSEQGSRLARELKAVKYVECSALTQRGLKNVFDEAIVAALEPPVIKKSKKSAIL

effect of a mutation on the interaction	Substance
increasing interaction	Cell division control protein 42 (Saccharomyces cerevisiae), P19073 Q61L;C188S
increasing interaction	Cell division control protein 42 (Saccharomyces cerevisiae), P19073 C188S
increasing interaction	Cell division control protein 42 (Saccharomyces cerevisiae), P19073 G12V;C188S
